Measurements as given in patent US12385055B2, “Compositions and methods for production of salidroside, icariside D2, and precursors of salidroside and icariside D2” (Whitehead Institute for Biomedical Research, priority 2017, dated 2025).

Experiments:
[1] = target: Rhodiola rosea Rr4HPAAS, 4-hydroxyphenylacetaldehyde synthase, GenBank MF674522, SEQ ID NO: 2 (Rhodiola rosea, UniProt A0A2I6B3P0); test: Michaelis-Menten kinetics of Rr4HPAAS against aromatic amino acids; details: compared with L-tyrosine and L-DOPA; pH 8.0, 30° C.
Protocol: (§1) The AAS enzyme assays were performed in 100 μL of reaction buffer (50 mM Tris, pH 8.0) containing 50 μg of recombinant enzyme, 200 μM PLP. Kinetic reactions were incubated with a range of amino acid substrate concentrations (1 μM-4 mM) at 30° C. for 30 minutes prior to quenching with 100 μL of 0.8 M formic acid. […] Rr4HPAAS reactions were also analyzed by LC-MS-UV. 50 μL of reaction mixture was analyzed by an Ultimate 3000 liquid chromatography system (Dionex), equipped with a 150 mm C18 Column (Kinetex 2.6 μm silica core shell C18 100 Å pore, Phenomenex) and coupled to an UltiMate 3000 diode-array detector (DAD) in-line UV-Vis spectrophotometer (Dionex) and a TSQ Quantum Access MAX triple-quadrupole mass spectrometer (Thermo-Scientific). To resolve chromatographically L-tyrosine, tyrosol and 4-HPAAA, compounds were separated through the use of an isocratic mobile phase containing 50 mM monopotassium phosphate pH 4.6, 15% (v/v) acetonitrile and 0.5 mM octyl sulfate. Rr4HPAAS product formation was quantified using the UV absorbance at 280 nm and compared to analytical standards using the diode array detector wavelength at a wavelength range of 200-500 nm and chromatographic retention time. […]
Kinetic constants such as Km and Vmax were determined by fitting raw data to the Michaelis-Menten equation using the nonlinear regression function in Prism (version 7.0).

[2] = 4-HPAA reductase activity assay; type: biochemical; details: 5 mM 4-HPAA, 10 mM NADPH, five-minute time point
Protocol: The phenylacetaldehyde reductase activity assays using Rr4HPAR1 and RrPAR2 were carried out in 200 μL reaction buffer (50 mM Tris, pH 8.0) at the presence of 2 mM phenylacetaldehyde, 5 mM NADPH and 5 μg of recombinant enzyme. The reactions were incubated at 30° C. for various time points, quenched with an equal volume of 0.8 M formic acid, and extracted by 100 μL of ethyl acetate. The organic phase was then analyzed by gas chromatography-mass spectrometry (GC-MS) using an 5% Phenyl Methyl Silox column (30 m×250 m×0.25 m, Agilent) with a temperature gradient as follows: 0-1 min 45° C., 4-13.33 min 45-185° C. The quadrupole MS was set to EI mode, electron energy at 70 eV, MS-source temperature at 230° C., MS-quad temperature at 150° C., scan mass range at 50-300 m/z and SIM for 120 m/z and 122 m/z. EI-MS spectra were compared against analytical standards. The 4-HPAA reductase activity assays were carried out in 100 μL of 50 mM Tris pH 8.0 with the addition of 5 mM 4-HPAA, 10 mM NADPH and 0.2 μg of Rr4HPAR1 or […] of Rr4HPAR2. […] The reaction mixture was then centrifuged and analyzed by LC-MS. […] Product formation was measured using select ion monitoring in positive mode for a centroid center mass of 121.065 with a scan width of 0.002. The specific activity was determined at a five-minute reaction time point, and quantified against a standard curve of tyrosol.

[3] = Phenylacetaldehyde reductase activity assay; type: biochemical; details: NADPH as co-substrate
Protocol: FIG. 15 is a chromatogram showing the enzymatic reduction of phenylacetaldehyde to phenylethyl alcohol by Rr4HPAR1 and Rr4HPAR2. Chromatogram of positive ion mode metabolites between 50 and 300 m/z show the depletion of phenylacetaldehyde and production of phenylethyl alcohol when exposed to NADPH and Rr4HPAR1 or RrPAR2. Reactions were carried out in 200 μL 50 mM Tris, pH 8.0 in the presence of 2 mM phenylacetaldehyde, 5 mM NADPH and 50 μg of recombinant enzyme. The reactions were incubated at 30° C. for 25 minutes prior to quenching with 200 μL of 0.8 M formic acid, extracted with 100 μL of ethyl acetate and analyzed by gas chromatography-mass spectrometry. Phenylethyl alcohol was verified by comparison to an authentic standard.
The phenylacetaldehyde reductase activity assays using Rr4HPAR1 and RrPAR2 were carried out in 200 μL reaction buffer (50 mM Tris, pH 8.0) at the presence of 2 mM phenylacetaldehyde, 5 mM NADPH and 5 μg of recombinant enzyme. […] The organic phase was then analyzed by gas chromatography-mass spectrometry (GC-MS) using an 5% Phenyl Methyl Silox column (30 m×250 m×0.25 m, Agilent) with a temperature gradient as follows: 0-1 min 45° C., 4-13.33 min 45-185° C. […] The reaction mixture was then centrifuged and analyzed by LC-MS. […] Product formation was measured using select ion monitoring in positive mode for a centroid center mass of 121.065 with a scan width of 0.002. […]

[4] = Hydrogen peroxide production from L-tyrosine by recombinant AAS candidates; type: biochemical; details: L-tyrosine as substrate
Protocol: FIG. 12 is a graph showing relative hydrogen peroxide production for the Rr4HPAAS, the RrAAS and the PsTyDC. 100 μL reaction mixtures containing 50 μg of recombinant enzyme, 2 mM L-tyrosine, 50 mM Tris pH 8.0 and 200 μM PLP were incubated at 30° C. for various time points prior to quenching with 100 μL of 0.8 M formic acid. Hydrogen peroxide levels of quenched reaction mixtures were subsequently analyzed using Pierce Quantitative Peroxide Assay Kit against a standard curve of hydrogen peroxide.
as §1, with “PLP.” for “PLP. Kinetic reactions were incubated with a range of amino acid substrate concentrations (1 μM-4 mM) at 30° C. for 30 minutes prior to quenching with 100 μL of 0.8 M formic acid.”, “To resolve chromatographically L-tyrosine, tyrosol and 4-HPAAA, compounds were separated through the use of an isocratic mobile phase containing 50 mM monopotassium phosphate pH 4.6, 15% (v/v) acetonitrile and 0.5 mM octyl sulfate.” left out

N. benthamiana leaves = test: Agrobacterium-mediated transient expression in leaves with LC-HRAM-MS metabolic profiling; type: in vivo; details: leaves harvested 5 days after infiltration
Protocol: To further evaluate the biochemical function of R. rosea tyrosol glycoside biosynthetic genes in planta, these genes were expressed in N. benthamiana leaves using the Agrobacterium tumefaciens-mediated transient protein production technique (Sainsbury et al., 2009) followed by LC-HRAM-MS-based metabolic profiling. […] PsTyDC and the previously reported Petroselinum crispum 4HPAAS (Pc4HPAAS, GenBank: AAA33861) (Torrens-Spence et al., 2012) were also tested in parallel as controls. […] The chemical identity of these compounds was confirmed by both LC-HRAM-MS and nuclear magnetic resonance (NMR) analyses (FIGS. 20-26). […] Next, the in planta regio-specificity of RrT8GT and RrT4GT in tyrosol glycosylation was evaluated. […] Meanwhile, the accumulation of free tyrosol was reduced in these plants compared to those with Rr4HPAAS expression alone (FIG. 27). […]
Crown tissue and root tissue of a three-month-old R. rosea plant was harvested and stored at −80° C. before subsequent metabolomic analysis. […] The extracts were then analyzed by LC-HRAM-MS. […]

[5] = substrate: N[C@@H](Cc1ccc(O)c(O)c1)C(=O)O; test: purified protein, by the assay type; details: other: amino acid substrate 1 μM-4 mM, 200 μM PLP, pH 8.0, 30° C., 30 min, peroxide assay
[6] = substrate: N[C@@H](Cc1ccc(O)cc1)C(=O)O; test: purified protein, by the assay type; details: other: amino acid substrate 1 μM-4 mM, 200 μM PLP, pH 8.0, 30° C., 30 min, peroxide assay
Protocol: The AAS enzyme assays were performed in 100 μL of reaction buffer (50 mM Tris, pH 8.0) containing 50 μg of recombinant enzyme, 200 μM PLP. Kinetic reactions were incubated with a range of amino acid substrate concentrations (1 μM-4 mM) at 30° C. for 30 minutes prior to quenching with 100 μL of 0.8 M formic acid. […] Rr4HPAAS reactions were also analyzed by LC-MS-UV. 50 μL of reaction mixture was analyzed by an Ultimate 3000 liquid chromatography system (Dionex), equipped with a 150 mm C18 Column (Kinetex 2.6 μm silica core shell C18 100 Å pore, Phenomenex) and coupled to an UltiMate 3000 diode-array detector (DAD) in-line UV-Vis spectrophotometer (Dionex) and a TSQ Quantum Access MAX triple-quadrupole mass spectrometer (Thermo-Scientific). To resolve chromatographically L-tyrosine, tyrosol and 4-HPAAA, compounds were separated through the use of an isocratic mobile phase containing 50 mM monopotassium phosphate pH 4.6, 15% (v/v) acetonitrile and 0.5 mM octyl sulfate. Rr4HPAAS product formation was quantified using the UV absorbance at 280 nm and compared to analytical standards using the diode array detector wavelength at a wavelength range of 200-500 nm and chromatographic retention time. The reduction of aldehyde products was achieved by addition of saturated sodium borohydride in ethanol or by addition of 10 mM NADPH and 10 g of Rr4HPAR1 or Rr4HPAR2.

In the case of `N[C@@H](Cc1c[nH]c2ccccc12)C(=O)O` [L-tryptophan], the “substrate preference (Michaelis-Menten kinetics, in words)” value [1] is reported as “much less preferred substrates”.

For `N[C@@H](Cc1ccccc1)C(=O)O` [L-phenylalanine], the “substrate preference (Michaelis-Menten kinetics, in words)” value [1] was “much less preferred substrates”.

For “Rr4HPAR1: R. rosea 4-hydroxyphenylacetaldehyde reductase, reduces 4-HPAA to tyrosol”, the “specific activity towards 4-HPAA” value [2] was 6.9 µmol/min/mg and the “reduction of phenylacetaldehyde to phenylethanol” value [3] was “higher activity”.

B1: Rhodiola rosea Rr4HPAAS, 4-hydroxyphenylacetaldehyde synthase, GenBank MF674522, SEQ ID NO: 2 (Rhodiola rosea) (protein)
chain: MGSLPSPNDPSNTFNPMDLTELSTESKLVVDFITQYYQTLETRPVQPRVKPGFLTGQLPDKAPFHGESMEVILSDVNEKIVPGLTHWQSPNFHAYFPASSSNAGLLGELLCSGLSVIGFTWSSSPAATELENVVVDWMAKMLNLPSSFCFSGGGGGVLQANTCEAVLCTLAAARDKALNRVGDDQINKLVLYCSDQTHFTIHKGAKLIGIRSKNIKSITTKKENEFKLCPNDLRDAIRSDLEAGLVPFYVCGTIGTTALGVVDPIKELGKVAREFDLWLHVDGAYGGSACICPEFQHYLDGVDLVDSISMNAHKWLLSNLDCCFLWLQSPNALIESLAAEANFLKGGSEMVDYKDWQISLSRRFRAIKMWMVIRRYGVSNLIEHIRSDVSMAVRFEEMVAADDRFEIVFPRKFALVCFKLSSEKTPPGRDSELTRELMERVNSSGKAYLSGVQMGRIFFIRCVIGSSLTEERHVDNLWRLIQETAQSIVS
In the case of B1, the hydrogen peroxide production [4] is reported as “much higher activity”, the “metabolites produced on expression of the enzyme alone” value (N. benthamiana leaves) is reported as “significant accumulation of both salidroside and icariside D2” and the Km [5] is reported as 1.04 ± 0.10 mM. The Km [6] was 0.42 ± 0.02 mM, the kcat [6] was 4.92 ± 0.08 s⁻¹ and the kcat/Km [6] was 11700 M⁻¹ s⁻¹.

B2: PsTyDC: Papaver somniferum tyrosine decarboxylase, tested as control (protein, UniProt O82415 1-512, looked up)
Tyrosine decarboxylase: MGSLPTNNLESISLCSQNPLDPDEFRRQGHMIIDFLADYYKNVEKYPVRSQVEPGYLKKRLPESAPYNPESIETILEDVTNDIIPGLTHWQSPNYFAYFPSSGSIAGFLGEMLSTGFNVVGFNWMSSPAATELESIVMNWLGQMLTLPKSFLFSSDGSSGGGGVLQGTTCEAILCTLTAARDKMLNKIGRENINKLVVYASDQTHCALQKAAQIAGINPKNVRAIKTSKATNFGLSPNSLQSAILADIESGLVPLFLCATVGTTSSTAVDPIGPLCAVAKLYGIWVHIDAAYAGSACICPEFRHFIDGVEDADSFSLNAHKWFFTTLDCCCLWVKDSDSLVKALSTSPEYLKNKATESKQVIDYKDWQIALSRRFRSMKLWLVLRSYGVANLRTFLRSHVKMAKHFQGLIGMDNRFEIVVPRTFAMVCFRLKPTAIFKQKIVDNDYIEDQTNEVNVKLLESVNASGKIYMTHAVVGGVYMIRFAVGATLTEERHVTGAWKVVQEHTDAILGA
With B2 the “metabolites produced on expression of the enzyme alone” value (N. benthamiana leaves) was “no measurable production of tyrosol glycosides”.
